Data from the nanobody polyreactivity screen of Harvey et al. (2022).

Experiment: yeast display, Sf9 membrane polyspecificity reagent, FACS + sequencing; frameworks hold sequencing errors
Summary of the method: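 Genes from sorted yeast were amplified by colony PCR, read by MiSeq 2 × 250 sequencing and filtered on CDR length. These cells carried a synthetic nanobody library in Saccharomyces cerevisiae BJ5465 and were sorted by FACS into low and high (top ~1%) gates on anti-HA and streptavidin fluorescence. Polyreactivity is labelled according to the gate of origin.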

Row | Sequence | polyreactivity (PSR sort gate)
1 | QVQLVESGGGLVQAGGSLRLSCAASGRILSPYAMGWYRPAPGKERELVAAISRSGGSTYYADSVKGRFTISRDNAKNTVYLQMNSLKPEDTAVYYCNAVIAWYRSDEYDYWGQGTQVTVSS | high polyreactivity
2 | QVQLVESGGGLVQAGGSLRLTCAASGSTFDTYAMGWYRQAPGKERELVAAISGSGVRTYYADSVKGRFTISRDNAKNTVYLQMNSLKPEDTAVYYCAARYPRRCGEYGYWGQGTQVTVSS | high polyreactivity
3 | QVQLVESGGGLVQAGGSLRLSCAASGIIFKSYTMGWYRQAPGKERELVAAINSSGDRTYYADSVKGRFTISRDNAKNTVYLQMNSLKPEDTAVYYCAAAPVKKSRFRYDYWGQGTQVTVSS | high polyreactivity
4 | QVQLVESGGGLVQAGGSLRLSCAASGSTFRFYAMGWYRQAPGKERELVAAISSGGSTYYADSVKGRFTISRDNAKNTVYLQMNSLKPEDTAVYYCNARLYYSTFRYYYWGQGTQVTVSS | high polyreactivity
5 | QVQLVESGGGLVQAGGSLRLSCAASGFTIISYTMGWYRQAPGKERELVAAIRGGGRTYYADSVKGRFTISRDNAKNTVYLQMNSQKPEDTAVYYCASRLRYGGHYDYWGQGTQVTVSS | high polyreactivity
6 | QVQLVESGGGLVQAGGSLRLSCAASGFIFDGYAMGWYRQAPGKERELVAAISSVGSTYYADSVKGRFTISRDNAKNTVYLQMNSLKPEDTAVYYCARGLEERYDYWGQGTQVTVSS | low polyreactivity
7 | QVQLVESGGGLVQAGGSLRLSCAASGSIFDYYAMGWYRQAPGKERELVAAISGTGGSTYYADSVKGRFTISRDNAKNTVYLQMNSLKPEDTAVYYCNAGRHILTALRNDGTFDYWGQGTQVTVSS | high polyreactivity
8 | QVQLVESGGGLVQAGGSLRLSCAASGITFIGYVMGWYRQAPGKERELVAAISRSGASTYYADSVKGRFTISRDNAKNTVYLQMNSLKPEDTAVYYCATVRYHPAYYYWGQGTQVTVSS | high polyreactivity
9 | QVQLVESGGGLVQAGGSLRLSCAASGRTFTHYAMGWYRQAPGKERELVAAISWSGGRTYYADSVKGRFTISRDNAKNTVYLQMNSLKPEDTAVYYCAADAFRGFYWGQGTQVTVSS | high polyreactivity
10 | QVQLVESGGGLVQAGGSLRLSCAASGFTFYRYAMGWYRQAPGKERELVARISWSGGSTYYADSVKGRFTISRDNAKNTVYLQMNSLKPEDTAVYYCNARRLFESWKYDYWGQGTQVTVSS | high polyreactivity
11 | QVQLVESGGGLVQAGGSLRLSCAASGRIFTGNAMGWYRQAPGKERELVASITYNGGRTYYADSVKGRFTISRDKAKNTVYLPMNRLKPEDTAVYYCNAGDYGFGYEYWGQGTQVTVSS | low polyreactivity
12 | QVQLVESGGGLVQAGGSLRLSCSASGGIFSAYAMGWYRQSPGKERELVAAISRTGGSTYYADSVKGRFTISRDNAKNTVYLQMNSLKPEDTAVYYCNAVYRRYPEFDYWGQGTQVTVSS | high polyreactivity
13 | QVQLVESGGGLVQAGGSLRLSCAASGSIFAHYTMGWYRQAPGKERELVAAISGSGGSTYYADSVKGRFTISCDNAKNTVYLQMNSLKPEDTAVYYCNKRYRPVGPYDYWGQGTQVTVSS | high polyreactivity
14 | QVQLVDSGGGLVQAGGSLRLSCAASGSTYSPNAMGWNRQAPGKERELVAAITGGGSTTYADSVQGRFTISRDNATNTVYLQMNSLKPEETAVYYCNTDGPRYARPFDSWGQGTQVTVSS | low polyreactivity
15 | QVQLVESGAGLVQAGVSLRLSCAASGRIFVVNAMGRYRHAPGKERELVAAISRGGSTNYADSVKGPFTISRDNAKNTVYLQMNSLKPEDTAVYYCNADGSSYWYPVPLDGGDYWGQGTLVTVSS | low polyreactivity
16 | QVQLVESGGGLVQAGGSLRLSCAASGRTFYSYAMVWYRQAPGKERELVAAISAGGSTYYADSVKGRFTSSRDNAMTTLYLQMNSLKPEDTAVYYCADTYSYYYVRYHYWGQGTQVTVSS | high polyreactivity

Row | Sequence | polyreactivity (PSR sort gate)
17 | QVQLVESGGGLVQAGGSLRLSCAASGSIFLSNAMGCYRQAPGKEREIVADIDWTGGDTYYADSVKGRFTISRDNAKNTVYLQMNSLKPEDTAVYYCAADYGYRNLLTEYSYWGQGTQVTVSS | low polyreactivity
18 | QVQLVESGGGLVQAGGSLRLSCAASGRIFFFYAMGWYRQAPGKERELVATITWTDGSTDYADSVKGRFTISRDNAKNTVYLQMNSLKPEDTAVYYCAKDEYVSRYDYWGQGTQVTVSS | low polyreactivity
19 | QVQLVESGGGLVQAGGSLRLSCAASGGTFGGYAMGWYRQAPGKERELVAVISQSGGTTYYADSVKGRFTISRDNAKNTVYLQMNSLKPEDTAVYYCNAYTYYKRFGYWGQGTQVTVSS | high polyreactivity
20 | QVQLVESGGGLVQAGGSLRLSCAASGSILSGYAMVWYRQAPGTERELVAAITSGGDTNYADSVKGRFTISRDNAKNTVYLQMNSLKPEETAVYYCAADPSYLGLFGYDYWGQGTQVTVSS | low polyreactivity
21 | QVQLVESGGGLVQAGGSLRLSCAAYGRTFGLNAMGWYRQAPGKERELVAAISSSGGSTYYADSVKGRFTISRDNAKNTVYLQMNSLKPEDTAVYYCARVPLHRYGYWGQGTQVNVSS | high polyreactivity
22 | QVQLVESGGGLVQAGGSLRLSCAASGFIFSSYGMGWYRQAPGKERELVADISGGGSTNYADSVKGRFTISRDNAKNTVYLQMNSLKPEDTAVYYCNAQLIRSAAYDYWGQGTQVTVSS | low polyreactivity
23 | QVKLVESGGCLVQAGCSLSLSCAASGRTFVTYAMGWYRQAPGKEREFVAAISWSGVSTYYADSVKGRFTISRDNAKNTVYLQMNSLKPEDTAVYYCAAKRVRALYGGSEGGYWGQGTQVTVSS | low polyreactivity
24 | QVQLVESGGGLVQAGGSLRLSCAASGSTFWLYAMGWYREAPGKERELVATISERGGSTYYADSVKGRFTISRDYAKNTVYFQMNSLKPEDTAVYYCAADQFHYPRGRRYDYWGQGTQVTVSS | low polyreactivity
25 | QVQLVESGGGLVQAGGSLRLSCAASGIIFTTNAMGWYRQAPGKERELVATITSGGGTYYADSVKGRFTISRDNAKNTVYLQMNSLKPEDTAVYYCAATPGWGPWIFDHSYVDFDYWGQGTQVTVSS | low polyreactivity
26 | QVQLVESGGGLVQAGGSLRLSCAASGRIFGVYAMGWYRQAPGKERELVADITRGGGSTYYADSVKGRFTISRDNAKNTVYLQMNSLKPEDTAVYYCAARYRFQRGGYYYWGQGTQVTVSS | high polyreactivity
27 | QVQLVESGGGLVQAGGSLRLRCAASGITLAGYVMGWYRQAPGKERELVADISSSGDSTYYADSVKGRFTISRDNAKNTVYLQMNSLKPEDTAVYYCNADQVWWSFDRVLVGYEYWGQGSQVTVSS | low polyreactivity
28 | QVQLVESGGGLVQAGGRLRLSCAASGFIFGSYAMGWYRQAPGKERELVAVISSSGGRTYYADSVKGRFTISRDNAKNTVYLQMNSLKPEDTAVYYCNAKSRLFPTYRIYDYWGQGTQVTVSS | high polyreactivity
29 | QVQLLESGGGLVQAGGSLSLSCAASGSTFKHYAMGWYRQAPGKERELVAAISSRGGSTHYADSVKGRFTISRDNAKNTVYLQMNSLKREDTAVYYCARDTDPQSSRSSDYDYWGQGTQVSVSS | low polyreactivity
30 | QVQLVESGGGLVQAVGSLRLSCAASGFTFGEYDMGSYRHAPGKERELVAAIDSGGSTYYADSVKRRFTISRDNAKNTVYLQMNSLKPEDTALYYCNADSTYDYYELDYDHWGQGTQVTVSS | low polyreactivity
31 | QVQLVESGGGLVQAGGSLRLSCAASGRTFVYNAMGWYRQAPGKERELVAAISSDGASTYYADSVKGRFTISRDNAKNTVYLQMNSLKPEDTAVYYCAADLLVSWWLDYDYWGQGTQVTVSS | low polyreactivity
32 | QVQLVESGGGLVQEGGSLRLSCAASGRTFGVYAMGWYRQAPGKESTYYADSVKGRFTISRDNAKNTVYLQMNSQKQEDTAVYYCAADEWYYIDPSDDYWGQGSQVTVSS | low polyreactivity
